Reference: patent publication EP4682169A1

Key:
[1] = target: human Claudin18.2 expressed on cells (human) (UniProt P56856); experiment: flow cytometry on 293FT CLDN18.2-Luc cells, APC anti-mouse IgG Fc
[2] = target: Human Claudin-18.2 protein (human) (UniProt P56856); experiment: SPR (Biacore 8K), antibody captured on Protein A, Claudin-18.2 protein as analyte

## IMAB-mIgG2aFc (antibody)
[1]
  EC50: 0.07 nM
[2]
  Kd: 5.65 nM
  koff: 0.000753 s⁻¹
  kon: 133000 M⁻¹ s⁻¹
